Data as given in patent US20180155451A1 (published 2018).

T1: FcγRIIb extracellular domain with C-terminal His tag (human, UniProt P31994 43-217)
T1 construct: extracellular domain; Soluble receptor expressed in FreeStyle293 cells and used as analyte in Biacore; also called FcgRIIb; 2b; not shown: His tag at the C terminus
T1 sequence (looked up): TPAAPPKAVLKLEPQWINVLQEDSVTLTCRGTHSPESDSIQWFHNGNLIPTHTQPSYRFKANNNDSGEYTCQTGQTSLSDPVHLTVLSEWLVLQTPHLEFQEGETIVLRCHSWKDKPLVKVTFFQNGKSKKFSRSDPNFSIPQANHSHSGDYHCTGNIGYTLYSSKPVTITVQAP


How the values were obtained:
[1] = biological target: T2, FcγRIa extracellular domain with C-terminal His tag (human, UniProt P12314 16-292); assay: SPR Biacore; relative binding to FcγRIa divided by that to FcγRIIb
T2 construct: extracellular domain; Soluble receptor expressed in FreeStyle293 cells and used as analyte in Biacore; also called FcgRI; 1a; not shown: His tag at the C terminus
T2 sequence (P12314 16-292): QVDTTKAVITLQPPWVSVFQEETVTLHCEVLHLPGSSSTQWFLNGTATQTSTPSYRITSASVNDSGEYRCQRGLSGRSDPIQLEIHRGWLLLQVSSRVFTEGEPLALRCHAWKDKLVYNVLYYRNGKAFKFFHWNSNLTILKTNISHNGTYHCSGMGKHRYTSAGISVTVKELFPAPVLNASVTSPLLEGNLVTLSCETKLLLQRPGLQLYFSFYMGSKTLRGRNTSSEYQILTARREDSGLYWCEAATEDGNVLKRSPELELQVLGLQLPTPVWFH

[2] = biological target: T2, FcγRIa extracellular domain with …; assay: SPR Biacore, relative binding amount
[3] = biological target: T1, FcγRIIb extracellular domain with …; assay: SPR Biacore, relative binding amount
[4] = biological target: T3, FcγRIa extracellular domain with C-terminal His tag (human, UniProt P12314 16-292); assay: SPR Biacore, relative FcγRIa binding vs GpH7-B3/GpL16-k0
T3 construct: extracellular domain; also called FcgRI; CD64; not shown: His tag at the C terminus
T3 sequence (P12314 16-292): as above

Binder | Ia/IIb He_1a/2b [1] | He/Con_1a [2] | He/Con_2b [3] | Ho/Con_1a [4]
heterodimerized antibody GpH7-A5/GpH7-B3 variant S298_01G/GpL16-k0 (antibody, human IgG1, kappa, Substitution in only one H chain (GpH7-B3 side); also called He Ab) heavy 1: not shown heavy 2: not shown light: DIVMTQSPLSLPVTPGEPASISCQASESLVHSNRNTYLHWYLQKPGQSPQLLIYKVSNRFSGVPDRFSGSGSGTDFTLKISRVEAEDVGVYYCSQNTHVPPTFGQGTKVEIERTVAAPSVFIFPPSDEQLKSGTASVVCLLNNFYPREAKVQWKVDNALQSGNSQESVTEQDSKDSTYSLSSTLTLSKADYEKHKVYACEVTHQGLSSPVTKSFNRGEC | 1.29 ratio of He/Con_1a to He/Con_2b | 104 % of GpH7-A5/GpH7-B3/GpL16-k0 (=100) | 80.1 % of GpH7-A5/GpH7-B3/GpL16-k0 (=100) | 
heterodimerized antibody GpH7-A5/GpH7-B3 variant S298_02A/GpL16-k0 (antibody, human IgG1, kappa, Substitution in only one H chain (GpH7-B3 side); also called He Ab) heavy 1: not shown heavy 2: not shown light: DIVMTQSPLSLPVTPGEPASISCQASESLVHSNRNTYLHWYLQKPGQSPQLLIYKVSNRFSGVPDRFSGSGSGTDFTLKISRVEAEDVGVYYCSQNTHVPPTFGQGTKVEIERTVAAPSVFIFPPSDEQLKSGTASVVCLLNNFYPREAKVQWKVDNALQSGNSQESVTEQDSKDSTYSLSSTLTLSKADYEKHKVYACEVTHQGLSSPVTKSFNRGEC | 1.45 ratio of He/Con_1a to He/Con_2b | 107 % of GpH7-A5/GpH7-B3/GpL16-k0 (=100) | 73.4 % of GpH7-A5/GpH7-B3/GpL16-k0 (=100) | 
GpH7-B3 variant P271_15Y/GpL16-k0 (antibody, human IgG1, kappa, mutation in both H chains; also called Ho Ab P271_15Y; P271Y) heavy: not shown light: DIVMTQSPLSLPVTPGEPASISCQASESLVHSNRNTYLHWYLQKPGQSPQLLIYKVSNRFSGVPDRFSGSGSGTDFTLKISRVEAEDVGVYYCSQNTHVPPTFGQGTKVEIERTVAAPSVFIFPPSDEQLKSGTASVVCLLNNFYPREAKVQWKVDNALQSGNSQESVTEQDSKDSTYSLSSTLTLSKADYEKHKVYACEVTHQGLSSPVTKSFNRGEC |  |  |  | 99.4 % of HoCon Ab (=100)
heterodimerized antibody GpH7-A5/GpH7-B3 variant S298_07I/GpL16-k0 (antibody, human IgG1, kappa, Substitution in only one H chain (GpH7-B3 side); also called He Ab) heavy 1: not shown heavy 2: not shown light: DIVMTQSPLSLPVTPGEPASISCQASESLVHSNRNTYLHWYLQKPGQSPQLLIYKVSNRFSGVPDRFSGSGSGTDFTLKISRVEAEDVGVYYCSQNTHVPPTFGQGTKVEIERTVAAPSVFIFPPSDEQLKSGTASVVCLLNNFYPREAKVQWKVDNALQSGNSQESVTEQDSKDSTYSLSSTLTLSKADYEKHKVYACEVTHQGLSSPVTKSFNRGEC | 1.52 ratio of He/Con_1a to He/Con_2b | 107 % of GpH7-A5/GpH7-B3/GpL16-k0 (=100) | 70.6 % of GpH7-A5/GpH7-B3/GpL16-k0 (=100) | 
heterodimerized antibody GpH7-A5/GpH7-B3 variant Y296_08L/GpL16-k0 (antibody, human IgG1, kappa, Substitution in only one H chain (GpH7-B3 side); also called He Ab) heavy 1: not shown heavy 2: not shown light: DIVMTQSPLSLPVTPGEPASISCQASESLVHSNRNTYLHWYLQKPGQSPQLLIYKVSNRFSGVPDRFSGSGSGTDFTLKISRVEAEDVGVYYCSQNTHVPPTFGQGTKVEIERTVAAPSVFIFPPSDEQLKSGTASVVCLLNNFYPREAKVQWKVDNALQSGNSQESVTEQDSKDSTYSLSSTLTLSKADYEKHKVYACEVTHQGLSSPVTKSFNRGEC | 1.26 ratio of He/Con_1a to He/Con_2b | 104 % of GpH7-A5/GpH7-B3/GpL16-k0 (=100) | 82.3 % of GpH7-A5/GpH7-B3/GpL16-k0 (=100) | 
GpH7-B3 variant P271_16H/GpL16-k0 (antibody, human IgG1, kappa, mutation in both H chains; also called Ho Ab P271_16H; P271H) heavy: not shown light: DIVMTQSPLSLPVTPGEPASISCQASESLVHSNRNTYLHWYLQKPGQSPQLLIYKVSNRFSGVPDRFSGSGSGTDFTLKISRVEAEDVGVYYCSQNTHVPPTFGQGTKVEIERTVAAPSVFIFPPSDEQLKSGTASVVCLLNNFYPREAKVQWKVDNALQSGNSQESVTEQDSKDSTYSLSSTLTLSKADYEKHKVYACEVTHQGLSSPVTKSFNRGEC |  |  |  | 99.4 % of HoCon Ab (=100)
GpH7-B3 variant P271_14T/GpL16-k0 (antibody, human IgG1, kappa, mutation in both H chains; also called Ho Ab P271_14T; P271T) heavy: not shown light: DIVMTQSPLSLPVTPGEPASISCQASESLVHSNRNTYLHWYLQKPGQSPQLLIYKVSNRFSGVPDRFSGSGSGTDFTLKISRVEAEDVGVYYCSQNTHVPPTFGQGTKVEIERTVAAPSVFIFPPSDEQLKSGTASVVCLLNNFYPREAKVQWKVDNALQSGNSQESVTEQDSKDSTYSLSSTLTLSKADYEKHKVYACEVTHQGLSSPVTKSFNRGEC |  |  |  | 99.5 % of HoCon Ab (=100)
heterodimerized antibody GpH7-A5/GpH7-B3 variant Y296_02A/GpL16-k0 (antibody, human IgG1, kappa, Substitution in only one H chain (GpH7-B3 side); also called He Ab) heavy 1: not shown heavy 2: not shown light: DIVMTQSPLSLPVTPGEPASISCQASESLVHSNRNTYLHWYLQKPGQSPQLLIYKVSNRFSGVPDRFSGSGSGTDFTLKISRVEAEDVGVYYCSQNTHVPPTFGQGTKVEIERTVAAPSVFIFPPSDEQLKSGTASVVCLLNNFYPREAKVQWKVDNALQSGNSQESVTEQDSKDSTYSLSSTLTLSKADYEKHKVYACEVTHQGLSSPVTKSFNRGEC | 1.26 ratio of He/Con_1a to He/Con_2b | 103 % of GpH7-A5/GpH7-B3/GpL16-k0 (=100) | 82 % of GpH7-A5/GpH7-B3/GpL16-k0 (=100) | 
heterodimerized antibody GpH7-A5/GpH7-B3 variant S298_03V/GpL16-k0 (antibody, human IgG1, kappa, Substitution in only one H chain (GpH7-B3 side); also called He Ab) heavy 1: not shown heavy 2: not shown light: DIVMTQSPLSLPVTPGEPASISCQASESLVHSNRNTYLHWYLQKPGQSPQLLIYKVSNRFSGVPDRFSGSGSGTDFTLKISRVEAEDVGVYYCSQNTHVPPTFGQGTKVEIERTVAAPSVFIFPPSDEQLKSGTASVVCLLNNFYPREAKVQWKVDNALQSGNSQESVTEQDSKDSTYSLSSTLTLSKADYEKHKVYACEVTHQGLSSPVTKSFNRGEC | 1.7 ratio of He/Con_1a to He/Con_2b | 110 % of GpH7-A5/GpH7-B3/GpL16-k0 (=100) | 64.5 % of GpH7-A5/GpH7-B3/GpL16-k0 (=100) | 
